This is an account of results in article PMC9418810.

Bounds are passed on as bounds.

The test has as its target AcMYB1 (full length) in the AD plasmid pGADT7 (Allium cepa (onion)).

“AcB2 (full length, 1–615 aa) in the BD plasmid pGBKT7 (natural protein)”: the AcANS or AcF3H1 promoter-luciferase reporter activation in Arabidopsis leaf protoplasts, coexpression of AcB2 and AcMYB1 compared with AcMYB1 alone is above 2.5 fold.
